The results in this text go back to PMC4103484, “Functional effects of polymorphisms on glucocorticoid receptor modulation of human anxiogenic substance-P gene promoter activity in primary amygdala neurones”.

Data set [1] addresses T1, glucocorticoid receptor alpha (GRα) (human) (UniProt P04150).
T1 sequence: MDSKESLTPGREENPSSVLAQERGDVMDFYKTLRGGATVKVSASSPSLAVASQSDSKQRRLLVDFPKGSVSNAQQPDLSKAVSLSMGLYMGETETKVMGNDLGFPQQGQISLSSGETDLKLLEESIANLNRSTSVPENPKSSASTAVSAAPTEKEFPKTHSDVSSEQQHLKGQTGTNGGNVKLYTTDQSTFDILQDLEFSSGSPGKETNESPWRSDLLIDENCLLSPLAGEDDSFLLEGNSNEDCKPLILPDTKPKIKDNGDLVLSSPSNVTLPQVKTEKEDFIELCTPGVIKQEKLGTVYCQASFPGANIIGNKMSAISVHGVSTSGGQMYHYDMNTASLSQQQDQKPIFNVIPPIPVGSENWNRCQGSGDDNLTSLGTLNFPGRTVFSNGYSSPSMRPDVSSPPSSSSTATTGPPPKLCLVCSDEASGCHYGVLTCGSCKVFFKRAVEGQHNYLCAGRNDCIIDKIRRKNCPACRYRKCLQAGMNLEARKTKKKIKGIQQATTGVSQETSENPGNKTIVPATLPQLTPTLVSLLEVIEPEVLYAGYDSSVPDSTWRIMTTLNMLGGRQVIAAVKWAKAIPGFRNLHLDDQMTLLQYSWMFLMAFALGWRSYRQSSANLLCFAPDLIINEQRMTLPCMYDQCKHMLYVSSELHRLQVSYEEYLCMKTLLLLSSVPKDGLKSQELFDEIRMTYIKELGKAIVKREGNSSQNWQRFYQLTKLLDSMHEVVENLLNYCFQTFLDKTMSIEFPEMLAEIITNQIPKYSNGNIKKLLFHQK
Put plainly: EMSA. Particulars: reference; EMSA: 20 fmol biotin probe with 2.0 uM GRα or 10 ug nuclear extract; buffer as Hay et al. 2005 with EDTA replaced by 50 uM ZnSO4; competitor 100x; 6% native ….

For data set [2], the target named is T2, glucocorticoid receptor alpha (GRα) (human, UniProt P04150 1-777). The data set is described as follows: competition; 100x unlabelled, vs 2GR probe; EMSA: 20 fmol biotin probe with 2.0 uM GRα or 10 ug nuclear extract; buffer as Hay et al. 2005 with EDTA replaced by 50 uM ZnSO4; competitor 100x; 6% native gel, 0.5x TBE pH 8.3; binding salt, pH and temperature not stated. Particulars: protein: recombinant; chain copies: 2; blunt.

Data set [3] addresses T2, glucocorticoid receptor alpha (GRα). Put plainly: EMSA; EMSA: 20 fmol biotin probe with 2.0 uM GRα or 10 ug nuclear extract; buffer as Hay et al. 2005 with EDTA replaced by 50 uM ZnSO4; competitor 100x; 6% native gel, 0.5x TBE pH 8.3; binding salt, pH and temperature not stated. Particulars: protein: recombinant; chain copies: 2; blunt.

As to “GAAGCAAAAAACGTCCTGTTCAACCCCTGCTCCTG (double strand) [SNP-G (SNPGR-G)]”, the binding signal in data set [1] is 100 % of SNP-G.

B1: RO (random oligonucleotide) (dsDNA)
DNA 1: CGAGCACCCTTCACCCTCCAGGCTTAACGG
DNA 2: CCGTTAAGCCTGGAGGGTGAAGGGTGCTCG
In the case of B1, the binding result in data set [2] was “no binding”.

B2: GRE-cons (dsDNA)
DNA 1: TAAGTTTATGGTTACAAACTGTTCTTAAAACGAGG
DNA 2: CCTCGTTTTAAGAACAGTTTGTAACCATAAACTTA
Regarding B2, the binding result in data set [3] was “binds”.
